Test results taken from publication PMC11417369, “DNA sequence and chromatin differentiate sequence-specific transcription factor binding in the human malaria parasite Plasmodium falciparum”.

B1: CACACA_negctrl_site1642 (dsDNA)
DNA 1: TGTTGCAAAACAAAAAAAAAAAAAAAAAATAATAAT
DNA 2: ATTATTATTTTTTTTTTTTTTTTTTGTTTTGCAACA
B2: CACACA_negctrl_site73 (dsDNA)
DNA 1: TTGATGTATACAATGTAGATTATTTAATATTTCAAC
DNA 2: GTTGAAATATTAAATAATCTACATTGTATACATCAA
B3: CACACA_negctrl_site251 (dsDNA)
DNA 1: AAGAATGTTATATTATGATGCTGTCTTTTTTTAAGA
DNA 2: TCTTAAAAAAAGACAGCATCATAATATAACATTCTT
B4: CACACA_negctrl_site83 (dsDNA)
DNA 1: GTGTGGTTACAGACACGAACACATTTTTTAAATATT
DNA 2: AATATTTAAAAAATGTGTTCGTGTCTGTAACCACAC
B5: CACACA_negctrl_site899 (dsDNA)
DNA 1: AATAAATAAATAAATATATATATATATATATATATG
DNA 2: CATATATATATATATATATATATTTATTTATTTATT
B6: CACACA_negctrl_site608 (dsDNA)
DNA 1: GTATATATATATATATATATAATAGTAACTTTTACT
DNA 2: AGTAAAAGTTACTATTATATATATATATATATATAC
B7: CACACA_negctrl_site1016 (dsDNA)
DNA 1: TATATTCCACTCATTGATTTTCTCTTCTCACAAAAA
DNA 2: TTTTTGTGAGAAGAGAAAATCAATGAGTGGAATATA
B8: CACACA_negctrl_site1797 (dsDNA)
DNA 1: AGATTATATATATGTATATATGTATATATTTATATA
DNA 2: TATATAAATATATACATATATACATATATATAATCT
B9: CACACA_site8059 (dsDNA)
DNA 1: CATACATATAAACACACACACACACCCACCCACAAA
DNA 2: TTTGTGGGTGGGTGTGTGTGTGTGTTTATATGTATG
B10: CACACA_negctrl_site54 (dsDNA)
DNA 1: AATAAAAAAAAAATATATATTTTTTTTTTTTTTTTT
DNA 2: AAAAAAAAAAAAAAAAATATATATTTTTTTTTTATT
B11: CACACA_site638 (dsDNA)
DNA 1: AATACACGCAAACACACACACACACCCACATATATA
DNA 2: TATATATGTGGGTGTGTGTGTGTGTTTGCGTGTATT
B12: CACACA_site8011 (dsDNA)
DNA 1: AGCACCCACCAACACACACACACACCCACCCACCCA
DNA 2: TGGGTGGGTGGGTGTGTGTGTGTGTTGGTGGGTGCT
B13: CACACA_site240 (dsDNA)
DNA 1: TTTATTTATTAATACACACACACACCCCCACAAAAT
DNA 2: ATTTTGTGGGGGTGTGTGTGTGTATTAATAAATAAA
B14: CACACA_negctrl_site706 (dsDNA)
DNA 1: TTTCTTATATTATATAAATATATAGATGTTAATGGT
DNA 2: ACCATTAACATCTATATATTTATATAATATAAGAAA
B15: CACACA_negctrl_site1015 (dsDNA)
DNA 1: TATAAATAAAGACTTTTTTCTAACTTTTTTTTGTAT
DNA 2: ATACAAAAAAAAGTTAGAAAAAAGTCTTTATTTATA
B16: CACACA_negctrl_site637 (dsDNA)
DNA 1: GTGTAAAGGTATTATTGTATTATTCAAAATAAAAAA
DNA 2: TTTTTTATTTTGAATAATACAATAATACCTTTACAC
B17: CACACA_negctrl_site1408 (dsDNA)
DNA 1: ATTTATTTTAATTTTTTTTTTTCTCTTTTGGATCTA
DNA 2: TAGATCCAAAAGAGAAAAAAAAAAATTAAAATAAAT
B18: CACACA_negctrl_site1686 (dsDNA)
DNA 1: ACAAGTGTATATGTTATATATATATATATATATATA
DNA 2: TATATATATATATATATATATAACATATACACTTGT
B19: CACACA_negctrl_site116 (dsDNA)
DNA 1: ATTGGAAAATATGTTATATATATATATATATATATG
DNA 2: CATATATATATATATATATATAACATATTTTCCAAT
B20: CACACA_site8069 (dsDNA)
DNA 1: ACATAATTAACAAATACACACACACCCACCCACAAA
DNA 2: TTTGTGGGTGGGTGTGTGTGTATTTGTTAATTATGT
B21: CACACA_negctrl_site1558 (dsDNA)
DNA 1: TCTTAAATATATAAATTGAAAAATATAAAAGTAATA
DNA 2: TATTACTTTTATATTTTTCAATTTATATATTTAAGA
B22: CACACA_negctrl_site1603 (dsDNA)
DNA 1: TGATTTATCTATATTTTATAAGTTATTTATTTTTTT
DNA 2: AAAAAAATAAATAACTTATAAAATATAGATAAATCA
B23: CACACA_negctrl_site942 (dsDNA)
DNA 1: ATATTATGAAGGGATATTTTCAAAAATATTAGGAGA
DNA 2: TCTCCTAATATTTTTGAAAATATCCCTTCATAATAT
B24: CACACA_negctrl_site1632 (dsDNA)
DNA 1: AATTCACATGTGAACTAAAAGAATATTATATATATA
DNA 2: TATATATATAATATTCTTTTAGTTCACATGTGAATT
B25: CACACA_site518 (dsDNA)
DNA 1: ATAATTAACAAATACACACACACACCCCCACAAAAA
DNA 2: TTTTTGTGGGGGTGTGTGTGTGTATTTGTTAATTAT
B26: CACACA_negctrl_site461 (dsDNA)
DNA 1: AGATATAGGAAAATAATATATATATATTTTTTTTTT
DNA 2: AAAAAAAAAATATATATATATTATTTTCCTATATCT
B27: CACACA_negctrl_site1407 (dsDNA)
DNA 1: CACATATACAAAAAGAAATGTTTAGTTGAAAATTAA
DNA 2: TTAATTTTCAACTAAACATTTCTTTTTGTATATGTG
B28: CACACA_negctrl_site77 (dsDNA)
DNA 1: TCTTTATATCATCTTTCTAAATATATATATATATAA
DNA 2: TTATATATATATATATTTAGAAAGATGATATAAAGA
B29: CACACA_negctrl_site754 (dsDNA)
DNA 1: TATATTTGTACATGATATTTTTTTTTTCTTTTAAAA
DNA 2: TTTTAAAAGAAAAAAAAAATATCATGTACAAATATA
B30: CACACA_negctrl_site1462 (dsDNA)
DNA 1: ATTTCTTTTTTTTTTTTTTTTAATGTAAAACATTTT
DNA 2: AAAATGTTTTACATTAAAAAAAAAAAAAAAAGAAAT
B31: CACACA_negctrl_site610 (dsDNA)
DNA 1: ATTATAAGAATTAAAAGAAACAAAATTTTAATTATA
DNA 2: TATAATTAAAATTTTGTTTCTTTTAATTCTTATAAT
B32: CACACA_negctrl_site1134 (dsDNA)
DNA 1: GTTTGATAACACCTACAAACTCTTTTTTTTTTTTTT
DNA 2: AAAAAAAAAAAAAAGAGTTTGTAGGTGTTATCAAAC

target: T1, PF3D7_0420300 D1 (Plasmodium falciparum, UniProt Q8I1N6 1956-2015); test: gcPBM; about 25 ug protein; PBS, 1% milk, 0.2 mg/ml BSA, salmon testes DNA, 0.03% Triton X-100; conditions: tags: N-terminal GST (pGEX-4T-1), kept; label: surface-attached array probe
T1 sequence: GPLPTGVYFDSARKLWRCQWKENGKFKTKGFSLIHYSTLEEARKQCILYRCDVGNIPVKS

| Binder | binding signal |
| --- | --- |
| B1 | 9.09 ln median PBM intensity, better of two orientations |
| B2 | 9.09 ln median PBM intensity, better of two orientations |
| B3 | 9.08 ln median PBM intensity, better of two orientations |
| B4 | 9.09 ln median PBM intensity, better of two orientations |
| B5 | 9.11 ln median PBM intensity, better of two orientations |
| B6 | 9.1 ln median PBM intensity, better of two orientations |
| B7 | 9.1 ln median PBM intensity, better of two orientations |
| B8 | 9.11 ln median PBM intensity, better of two orientations |
| B9 | 10.5 ln median PBM intensity, better of two orientations |
| B10 | 9.09 ln median PBM intensity, better of two orientations |
| B11 | 10.5 ln median PBM intensity, better of two orientations |
| B12 | 10.6 ln median PBM intensity, better of two orientations |
| B13 | 10.5 ln median PBM intensity, better of two orientations |
| B14 | 9.08 ln median PBM intensity, better of two orientations |
| B15 | 9.06 ln median PBM intensity, better of two orientations |
| B16 | 9.07 ln median PBM intensity, better of two orientations |

| Binder | binding signal |
| --- | --- |
| B17 | 9.07 ln median PBM intensity, better of two orientations |
| B18 | 9.1 ln median PBM intensity, better of two orientations |
| B19 | 9.05 ln median PBM intensity, better of two orientations |
| B20 | 10.5 ln median PBM intensity, better of two orientations |
| B21 | 9.06 ln median PBM intensity, better of two orientations |
| B22 | 9.05 ln median PBM intensity, better of two orientations |
| B23 | 9.11 ln median PBM intensity, better of two orientations |
| B24 | 9.11 ln median PBM intensity, better of two orientations |
| B25 | 10.6 ln median PBM intensity, better of two orientations |
| B26 | 9.11 ln median PBM intensity, better of two orientations |
| B27 | 9.06 ln median PBM intensity, better of two orientations |
| B28 | 9.07 ln median PBM intensity, better of two orientations |
| B29 | 9.1 ln median PBM intensity, better of two orientations |
| B30 | 9.11 ln median PBM intensity, better of two orientations |
| B31 | 9.07 ln median PBM intensity, better of two orientations |
| B32 | 9.08 ln median PBM intensity, better of two orientations |
